T1: Parkin R0RBR module (RING0, RING1, IBR, RING2), wild type (rat, UniProt Q9JK66 141-465)
T1 chain: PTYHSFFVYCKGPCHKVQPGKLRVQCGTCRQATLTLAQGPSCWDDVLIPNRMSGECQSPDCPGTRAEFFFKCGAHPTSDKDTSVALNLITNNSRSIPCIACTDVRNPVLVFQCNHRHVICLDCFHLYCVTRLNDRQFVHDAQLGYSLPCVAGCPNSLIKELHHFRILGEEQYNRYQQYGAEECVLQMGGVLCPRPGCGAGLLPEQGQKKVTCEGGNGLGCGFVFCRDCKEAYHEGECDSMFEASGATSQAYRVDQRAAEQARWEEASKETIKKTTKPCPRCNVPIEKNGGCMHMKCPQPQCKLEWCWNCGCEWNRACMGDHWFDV

B1: Parkin Ubl domain (ubiquitin-like domain), unmodified (domain or fragment)
chain: MIVFVRFNSSYGFPVEVDSDTSIFQLKEVVAKRQGVPADQLRVIFAGKELQNHLTVQNCDLEQQSIVHIVQRPQRK
B2: Parkin R0RBR module (RING0, RING1, IBR, RING2), wild type (domain or fragment)
chain: T1 chain
modifications: unmodified (non-phosphorylated) ubiquitin; only the figure label 'Ub' is given, so wild type is assumed (the non-phosphorylatable control in Fig EV3B is a separate His-tagged UbS65A)

What was measured:
[1] = target: T1, Parkin R0RBR module (RING0, RING1, IBR, …); assay: ITC
[2] = target: Ub (Homo sapiens); assay: ITC

Binder | Kd [1] | Kd [2]
B1 | 14 µM | –
B2 | – | 41 µM
